The source of these data is patent US20070172423A1, “Composition and method for modulating vasculogenesis for angiogenesis” (priority 1998, published 2007).

Assay [1] concerns the target T1, human VEGFR-1 (Homo sapiens, UniProt P17948).
T1 construct: soluble Ig-fusion proteins containing the extracellular domains of human VEGFR-1, VEGFR-2 and VEGFR-3; made in house; host or cells: human 293 EBNA cells, transient expression
The assay can be described thus: Binding to soluble VEGFR-1-Ig fusion protein. Conditions: 35S-labeled protein in conditioned medium from 293 cells, precipitation with Ig-fusion protein. As for the experimental part:
(§1) To assess the interactions between full length and truncated PDGF-C and the VEGF receptors, full length and truncated PDGF-C were tested for their capacity to bind to soluble Ig-fusion proteins containing the extracellular domains of human VEGFR-1, VEGFR-2 and VEGFR-3 (Olofsson et al., Proc. Natl. Acad. Sci. USA, 1998 95:11709-11714). The fusion proteins, designated VEGFR-1-Ig, VEGFR-2-Ig and VEGFR-3-Ig, were transiently expressed in human 293 EBNA cells. All Ig fusion proteins were human VEGFRs. Cells were incubated for 24 hours after transfection, washed with Dulbecco's Modified Eagle Medium (DMEM) containing 0.2% bovine serum albumin and starved for 24 hours. The fusion proteins were then precipitated from the clarified conditioned medium using protein A-Sepharose beads (Pharmacia). The beads were combined with 100 microliters of 10× binding buffer (5% bovine serum albumin, 0.2% Tween 20 and 10 µg/ml heparin) and 900 microliter of conditioned medium from 293 cells that had been transfected with mammalian expression plasmids encoding full length or truncated PDGF-C or control vector, then metabolically labeled with ^35S-cysteine and methionine (Promix, Amersham) for 4 to 6 hours. […] Labeled proteins that were bound to the Ig-fusion proteins were analyzed by SDS-PAGE under reducing conditions. Radiolabeled proteins were detected using a phosphorimager analyzer.

Assay [2] has as its target T2, human VEGFR-3 (Homo sapiens, UniProt P35916).
T2 construct: soluble Ig-fusion proteins containing the extracellular domains of human VEGFR-1, VEGFR-2 and VEGFR-3; made in house; host or cells: human 293 EBNA cells, transient expression
T2 sequence (P35916 25-775 limits assumed): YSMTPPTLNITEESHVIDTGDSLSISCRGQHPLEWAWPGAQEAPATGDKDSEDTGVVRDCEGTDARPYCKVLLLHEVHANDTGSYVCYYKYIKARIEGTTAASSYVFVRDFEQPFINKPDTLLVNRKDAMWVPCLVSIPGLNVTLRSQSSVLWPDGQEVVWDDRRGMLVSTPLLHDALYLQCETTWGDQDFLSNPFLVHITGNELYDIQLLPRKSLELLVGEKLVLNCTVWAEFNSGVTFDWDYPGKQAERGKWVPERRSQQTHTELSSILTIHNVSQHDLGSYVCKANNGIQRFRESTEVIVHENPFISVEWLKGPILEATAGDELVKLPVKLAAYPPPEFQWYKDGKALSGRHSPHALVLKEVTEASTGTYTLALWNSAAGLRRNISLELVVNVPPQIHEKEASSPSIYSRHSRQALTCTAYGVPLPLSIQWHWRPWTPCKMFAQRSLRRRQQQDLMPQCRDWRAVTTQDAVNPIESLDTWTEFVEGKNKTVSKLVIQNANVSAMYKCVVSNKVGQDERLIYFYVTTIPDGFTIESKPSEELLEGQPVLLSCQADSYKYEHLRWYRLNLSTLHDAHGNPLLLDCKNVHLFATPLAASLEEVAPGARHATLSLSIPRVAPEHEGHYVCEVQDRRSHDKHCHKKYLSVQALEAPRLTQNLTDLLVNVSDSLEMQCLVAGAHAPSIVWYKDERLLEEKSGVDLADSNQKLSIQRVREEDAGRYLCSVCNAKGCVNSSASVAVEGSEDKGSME
Briefly: Binding to soluble VEGFR-3-Ig fusion protein. Conditions: 35S-labeled protein in conditioned medium from 293 cells, precipitation with Ig-fusion protein. On the procedure: as §1

The target of assay [3] is PDGF alpha receptors (Homo sapiens, UniProt P16234). Briefly: Competition with 125I-PDGF-BB for binding to PAE-1 cells expressing PDGF alpha-receptor. Conditions: 5 ng/ml 125I-PDGF-BB tracer, on ice 90 minutes. Also on record: expressed in transfected cells. On the procedure: Next, full length and truncated PDGF-C were tested for their capacity to bind to human PDGF receptors alpha and beta by analyzing their abilities to compete with PDGF-BB for binding to PDGF receptors. The binding experiments were performed on porcine aortic endothelial-1 (PAE-1) cells stably expressing the human PDGF receptors alpha and beta (Eriksson et al., EMBO J, 1992, 11, 543-550). Binding experiments were performed essentially as in Heldin et al. (EMBO J, 1988, 7:1387-1393). Different concentrations of human full-length and truncated PDGF-C, or human PDGF-BB were mixed with 5 ng/ml of ^125I-PDGF-BB in binding buffer (PBS containing 1 mg/ml of bovine serum albumin). Aliquots were incubated with the receptor expressing PAE-1 cells plated in 24-well culture dishes on ice for 90 minutes. After three washes with binding buffer, cell-bound 125]-PDGF-BB was extracted by lysis of cells in 20 mM Tris-HCl, pH 7.5, 10% glycerol, 1% Triton X-100. The amount of cell bound radioactivity was determined in a gamma-counter. A standard curve for the binding of ^125I-labeled PDGF BB homodimers to PAE-1 cells expressing PDGF alpha-receptor is shown in FIG. 18.
PDGF alpha receptors, sequence (P16234 24-1089): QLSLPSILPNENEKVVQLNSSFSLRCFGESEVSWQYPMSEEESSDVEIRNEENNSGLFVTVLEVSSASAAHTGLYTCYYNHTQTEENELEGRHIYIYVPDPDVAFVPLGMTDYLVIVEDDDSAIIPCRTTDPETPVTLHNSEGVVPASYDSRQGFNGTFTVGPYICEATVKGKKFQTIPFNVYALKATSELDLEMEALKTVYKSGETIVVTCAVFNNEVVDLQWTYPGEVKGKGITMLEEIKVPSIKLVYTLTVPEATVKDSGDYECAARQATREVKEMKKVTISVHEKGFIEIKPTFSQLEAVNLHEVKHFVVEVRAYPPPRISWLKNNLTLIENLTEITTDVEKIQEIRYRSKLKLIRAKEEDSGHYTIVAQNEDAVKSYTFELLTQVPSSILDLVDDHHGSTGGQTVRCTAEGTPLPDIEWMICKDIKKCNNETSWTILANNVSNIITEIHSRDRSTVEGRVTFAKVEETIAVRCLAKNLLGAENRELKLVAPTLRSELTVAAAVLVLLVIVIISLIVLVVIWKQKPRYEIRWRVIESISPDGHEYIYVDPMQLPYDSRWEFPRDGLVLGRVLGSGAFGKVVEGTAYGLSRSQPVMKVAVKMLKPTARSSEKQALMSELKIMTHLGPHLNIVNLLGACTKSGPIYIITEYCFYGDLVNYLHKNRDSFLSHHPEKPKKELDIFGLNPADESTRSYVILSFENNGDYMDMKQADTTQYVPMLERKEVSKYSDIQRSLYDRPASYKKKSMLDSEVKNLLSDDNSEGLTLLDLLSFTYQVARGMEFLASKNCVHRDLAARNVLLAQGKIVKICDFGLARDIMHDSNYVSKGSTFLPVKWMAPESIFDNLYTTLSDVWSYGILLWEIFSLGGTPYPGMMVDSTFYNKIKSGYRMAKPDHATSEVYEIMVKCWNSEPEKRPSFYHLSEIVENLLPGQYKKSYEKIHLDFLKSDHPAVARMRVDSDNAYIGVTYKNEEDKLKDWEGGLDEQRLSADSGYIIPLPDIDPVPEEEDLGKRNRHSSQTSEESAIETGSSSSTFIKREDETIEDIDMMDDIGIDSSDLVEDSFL

T1 sequence (P17948 27-758 limits assumed): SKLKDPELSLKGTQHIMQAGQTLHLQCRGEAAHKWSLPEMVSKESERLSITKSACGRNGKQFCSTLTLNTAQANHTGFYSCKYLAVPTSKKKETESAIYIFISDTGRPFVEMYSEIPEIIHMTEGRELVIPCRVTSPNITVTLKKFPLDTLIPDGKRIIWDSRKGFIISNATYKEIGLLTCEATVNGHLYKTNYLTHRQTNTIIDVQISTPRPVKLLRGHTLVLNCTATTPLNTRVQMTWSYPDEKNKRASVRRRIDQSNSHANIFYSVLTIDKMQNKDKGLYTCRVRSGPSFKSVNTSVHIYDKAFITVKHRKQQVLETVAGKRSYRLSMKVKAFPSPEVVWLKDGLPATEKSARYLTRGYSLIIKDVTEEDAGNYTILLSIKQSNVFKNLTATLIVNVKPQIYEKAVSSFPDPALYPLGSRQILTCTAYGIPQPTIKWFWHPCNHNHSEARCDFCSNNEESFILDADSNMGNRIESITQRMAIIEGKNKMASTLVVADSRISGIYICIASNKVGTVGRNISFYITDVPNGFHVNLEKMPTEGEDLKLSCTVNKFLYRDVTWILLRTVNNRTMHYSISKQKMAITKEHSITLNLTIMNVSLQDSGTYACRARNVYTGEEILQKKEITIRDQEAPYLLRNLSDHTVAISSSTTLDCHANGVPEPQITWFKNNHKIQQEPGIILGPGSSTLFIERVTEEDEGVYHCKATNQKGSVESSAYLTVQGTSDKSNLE

B1: PDGF-CC: recombinant human PDGF-CC core domain homodimer, residues 230-345 of full-length PDGF-C (SEQ ID NO:40), produced in baculovirus infected insect cells (protein)
chain: GRKSRVVDLNLLTEEVRLYSCTPRNFSVSIREELKRTDTIFWPGCLLVKRCGGNCACCLHNCNECQCVPSKVTKKYHEVLQLRPKTGVRGLHKSLTDVALEHHEECDCVCRGSTGG
modifications: homodimer; PDGF-C core domain
As to B1, in assay [1], the “interaction with VEGFR-1-Ig” value is listed as “failed to show any interaction”. Besides, the “interaction with VEGFR-3-Ig” value in assay [2] is “failed to show any interaction”. Further, the “competition for binding to the PDGF alpha-receptor” value in assay [3] is “efficiently competed”.
